# T1: Depupylase Dop from Corynebacterium glutamicum, wild type (Corynebacterium glutamicum)
# T1 chain: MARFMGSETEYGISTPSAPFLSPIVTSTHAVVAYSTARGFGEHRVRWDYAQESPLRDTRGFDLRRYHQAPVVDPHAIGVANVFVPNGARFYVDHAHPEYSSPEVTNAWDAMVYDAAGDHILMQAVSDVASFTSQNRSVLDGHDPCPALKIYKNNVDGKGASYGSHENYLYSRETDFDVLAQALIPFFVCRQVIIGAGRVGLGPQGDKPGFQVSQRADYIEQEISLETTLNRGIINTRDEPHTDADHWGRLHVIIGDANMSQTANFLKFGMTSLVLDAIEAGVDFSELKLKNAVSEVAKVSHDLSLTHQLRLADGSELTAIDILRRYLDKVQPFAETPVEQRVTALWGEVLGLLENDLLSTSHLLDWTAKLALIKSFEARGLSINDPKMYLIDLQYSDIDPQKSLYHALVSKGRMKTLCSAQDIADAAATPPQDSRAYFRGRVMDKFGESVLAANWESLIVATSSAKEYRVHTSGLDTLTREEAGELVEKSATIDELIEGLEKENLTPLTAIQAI
# B1: Prokaryotic ubiquitin-like protein Pup from Corynebacterium glutamicum with C-terminal glutamate (natural protein)
# chain: MNAKQTQIMGGGGRDEDNAEDSAQASGQVQINTEGVDSLLDEIDGLLENNAEEFVRSYVQKGGE
# Tests used:
# [1] = target: T1, Depupylase Dop from Corynebacterium …; test: ITC
# [2] = target: CgluDopGS, Dop-loop variant of Dop from Corynebacterium glutamicum (Dop-loop H43-I77 replaced with (GS)4) (Corynebacterium glutamicum); test: ITC
binder,measurement,setting,value
B1,Kd,[1],186 nM
same,Kd,[2],76 nM

# Source: paper PMC8599861 (2021)
